This note sets out measurements from US20250312467A1.

This assay addresses Her2 (UniProt P04626). In words: cell-based or functional assay.

With “antibody-payload conjugate (ADC, trastuzumab-DM1 conjugate)”, the IC50, in vitro cytotoxicity on BT474 cells amounted to 0.0296 µg/mL and the IC50, in vitro cytotoxicity on NCI-N87 cells turned out to be 0.0821 µg/mL.
